Biological target: T1, Beauveria bassiana TATA-binding protein (BbTBP) (Beauveria bassiana, UniProt J4W563 1-253)
T1 construct: open reading frame amplified with primers PTBP-F/PTBP-R and cloned EcoRI/HindIII into pET28a; the forward primer begins at the codon after the start methionine (GAG GGC ATT ...), the reverse primer holds the stop codon; also called BbTBP1; source: E. coli Rosetta DE3, purified (Ni- or Co-NTA agarose)
T1 sequence: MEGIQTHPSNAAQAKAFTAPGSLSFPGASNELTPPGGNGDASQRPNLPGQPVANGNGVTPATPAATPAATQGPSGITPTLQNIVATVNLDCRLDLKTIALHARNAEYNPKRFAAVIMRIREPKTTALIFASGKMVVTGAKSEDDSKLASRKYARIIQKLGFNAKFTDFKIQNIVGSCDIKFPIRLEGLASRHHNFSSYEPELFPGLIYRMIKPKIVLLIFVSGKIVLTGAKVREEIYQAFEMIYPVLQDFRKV
Assay: native gel or EMSA; super-shift on 6% non-denaturing PAGE; BbTBP 1129 nM and BbMBF1 855 nM with TATA-containing oligonucleotide (TATA^C 16.8 nM or TATA^P 18.3 nM); 30 min at 37°C; 60 mM KCl, 20 mM Tris pH 7.9, 5.0 mM MgCl2, 10 mM dithiothreitol, 0.2 mg/ml BSA, 10% glycerol; nucleic acid and protein stain
Settings: both partners purified

B1: Beauveria bassiana multiprotein bridging factor 1 (BbMBF1) (natural protein)
chain: not shown
notes: Multiprotein bridging factor 1 of Beauveria bassiana, locus tag BBA_01830, 153 amino acids; open reading frame amplified with primers PMBF1-F/PMBF1-R and cloned EcoRI/HindIII into pET28a; the forward primer begins at the codon after the start methionine (TCT GAC GAC ...), the reverse primer holds the stop codon; source: E. coli Rosetta DE3, purified (Ni- or Co-NTA agarose)
B1: binds.

Source: publication PMC4605657, “Interaction between TATA-Binding Protein (TBP) and Multiprotein Bridging Factor-1 (MBF1) from the Filamentous Insect Pathogenic Fungus Beauveria bassiana” (PLoS ONE, 2015)
